According to patent US20210205211A1, “PERCUTANEOUS ABSORPTION PREPARATION” (KYUSHU UNIVERSITY, NATIONAL UNIVERSITY CORPORATION, priority 2018, published 2021):
Residues, ends and D or L forms follow the SMILES beside them.

Legend:
[1] = In vitro skin permeability test of OVA S/O-S formulations with various base oils (Example 8); assay type: in vitro ADME, Yucatan micropig; settings: for Average skin permeation amount: Yucatan micropig, pig, 24 h
[2] = In vitro skin permeability test of OVA versus concentration of permeation enhancing substance (Example 3); settings: S/O-S formulation 1 mg/mL OVA in IPM; enhancer solutions of 2, 10, 50 or 100 mg/mL mixed 1:1; 24 hours
[3] = In vitro skin permeability test of hydrophilic polymers in S/O-S formulation containing MGOL-70 (Example 6); settings: for Skin permeation amount of S/O-S preparation: 1 mg/mL hydrophilic polymer S/O-S formulation in IPM containing 25 mg/mL MGOL-70; for Skin permeation amount of S/O-S preparation / Skin permeation amount of PBS solution: YMP skin, 24 hours, 32° C.; for Enhancement effect: S/O-S preparation versus PBS solution; for Skin permeation amount of PBS solution: hydrophilic polymer in PBS solution
[4] = In vitro skin permeability test of OVA with glyceryl monooleate/glyceryl monolinoleate (Example 11); assay type: in vitro ADME; settings: OVA S/O-S in IPM; HR-1 mouse skin, 4 hours
Protocol: Glyceryl monooleate and glyceryl monolinoleate were dissolved in IPM with the composition shown in the following Table 7 to prepare Formulation 2.
Formulation 1 and Formulation 2 were mixed with a volume ratio of 1:1, and used in the following skin permeability test.
After 4 hours, the receiver phase was recovered, and the amount of the FITC-OVA permeated through the skin was quantified by using a plate reader.

[5] = In vitro skin permeability test of CMAP peptide S/O-S formulations with various oily bases (Example 1); assay type: in vitro ADME, Yucatan micropig
[6] = Measurement of zeta potential by electrophoretic light scattering; assay type: physicochemical; settings: 1 mg in 1 mL PBS solution, 25° C., Zetasizer Nano ZS
Protocol: In each 1 mL of a PBS solution was dissolved 1 mg of a part (7 kinds) of the various kinds of hydrophilic polymers shown in the above-mentioned Table 1, and a zeta potential was measured by an electrophoretic light scattering method at 25° C. using Zetasizer Nano ZS (Malvern Panalytical Ltd.).

[7] = no method given; cited from earlier work

Molecule	Skin permeation amount of S/O-S preparation [3]	Enhancement effect [3]	Skin permeation amount of PBS solution [3]	ζ potential [6]	pI [7]	also measured
CCCCCCCCCCCCCC(=O)OC(C)C [Isopropyl myristate, isopropyl myristate]	–	–	–	–	–	skin permeation effect of OVA by oily base [1]: high skin permeation effect; Average skin permeation amount [1]: 44.3 μg/cm^2
CCCCCCCC/C=C\CCCCCCCC(=O)OCC(O)CO (stereo not drawn) [MGOL-70, glyceryl monooleate]	–	–	–	–	–	tendency of the enhancing substance on percutaneous permeation of OVA [2]: tend to enhance it
CC(C)C[C@H](NC(=O)[C@H](CCC(=O)O)NC(=O)[C@H](CCC(=O)O)NC(=O)[C@@H](NC(=O)[C@H](Cc1ccc(O)cc1)NC(=O)[C@@H](NC(=O)[C@H](CCCNC(=N)N)NC(=O)[C@H](CC(C)C)NC(=O)[C@@H]1CCCN1C(=O)[C@H](C)NC(=O)[C@H](CO)NC(=O)[C@H](CCC(N)=O)NC(=O)[C@H](C)NC(=O)[C@H](CC(=O)O)NC(=O)[C@H](CC(C)C)NC(=O)[C@@H](N)CC(C)C)C(C)C)C(C)C)C(=O)N[C@@H](CCCCN)C(=O)N1CCC[C@H]1C(=O)O [Peptide (CMAP, from Beta-lactoglobulin)] (H-LLDAQSAPLRVYVEELKP-OH; N-terminus and C-terminus assumed)	11.1 μg/cm^2	15 fold	1.30 μg/cm^2	–	–	–
CC(C)CCCC(C)CCCC(C)CCCCC(C)CCCC(C)CCCC(C)C (stereo not drawn) [Squalane, squalane]	–	–	–	–	–	skin permeation effect of OVA by oily base [1]: high skin permeation effect; Average skin permeation amount [1]: 40.8 μg/cm^2
CCCCC/C=C\C/C=C\CCCCCCCC(=O)OCC(O)CO (stereo not drawn) [glyceryl monolinoleate]	–	–	–	–	–	skin permeation amount of the drug with increase in the addition ratio [4]: the skin permeation amount of the drug was increased
CCCCCCCC/C=C\CCCCCCCC(=O)O [oleic acid]	–	–	–	–	–	enhancing effect of percutaneous permeation (amount of skin permeation of the CMAP peptide) [5]: high enhancing effect of percutaneous permeation
Bovin serum albumin: Bovine serum albumin, 66.5 kDa, FITC-label	32.1 μg/cm^2	8.9 fold	3.6 μg/cm^2	−16.7 mV	4.7	–
Cholera toxin subunit B	39.4 μg/cm^2	4.0 fold	9.8 μg/cm^2	−3.29 mV	6.6	–
Green fluorescent protein	35.0 μg/cm^2	8.4 fold	4.2 μg/cm^2	−9.52 mV	6.1	state of the protein permeated into the skin ([3]; quantified by own fluorescence (GFP) or peroxidase activity (HRP) in skin extract): could be permeated into the skin without being denatured
Lysozyme: Lysozyme, 14.3 kDa, FITC-label	6.0 μg/cm^2	1.5 fold	4.0 μg/cm^2	8.84 mV	11	–
Ovalubumin: Ovalbumin (OVA), 45 kDa, labeled with FITC; model hydrophilic drug (protein, UniProt P01012 2-386, looked up, FITC, Ovalbumin (OVA), 45 kDa, labeled with FITC; model hydrophilic drug) Ovalbumin: GSIGAASMEFCFDVFKELKVHHANENIFYCPIAIMSALAMVYLGAKDSTRTQINKVVRFDKLPGFGDSIEAQCGTSVNVHSSLRDILNQITKPNDVYSFSLASRLYAEERYPILPEYLQCVKELYRGGLEPINFQTAADQARELINSWVESQTNGIIRNVLQPSSVDSQTAMVLVNAIVFKGLWEKAFKDEDTQAMPFRVTEQESKPVQMMYQIGLFRVASMASEKMKILELPFASGTMSMLVLLPDEVSGLEQLESIINFEKLTEWTSSNVMEERKIKVYLPRMKMEEKYNLTSVLMAMGITDVFSSSANLSGISSAESLKISQAVHAAHAEINEAGREVVGSAEAGVDAASVSEEFRADHPFLFCIKHIATNAVLFFGRCVSP	12.5 μg/cm^2	30 fold	0.41 μg/cm^2	−12.80 mV	4.9	–
